Measurements taken from patent publication EP4624492A1 (Shanghai Hongcheng Biopharmaceutical Co., Ltd., dated 2025).
Like-named read-outs stand apart in the source and are kept apart here.

Columns and labels:
human CCR8 [1] = target: T1, human CCR8 (human, UniProt P51685 1-355); experiment: flow cytometry on 293F-hCCR8 cells
T1 construct: whole, on cells; the cell line is named under assay; also called hCCR8

cynomolgus CCR8 [2] = target: T2, cynomolgus CCR8 (cynomolgus monkey); experiment: flow cytometry on 293T-cynoCCR8 cells
T2 construct: whole, on cells; the constructs of the cell lines are not tied to it word for word; also called cynoCCR8

cynomolgus CCR8 [3] = target: T2, cynomolgus CCR8; experiment: flow cytometry, hybridoma supernatant on CHOK1-cynoCCR8 cells
human CCR8 [4] = target: T1, human CCR8; experiment: flow cytometry, hybridoma supernatant on CHOK1-hCCR8 cells
human CCR8 [5] = target: T1, human CCR8; experiment: flow cytometry, competition with 10 nM AF647-human CCL1 on 293F-hCCR8 cells
human CCR8 [6] = target: T1, human CCR8; experiment: cell-based or functional assay
human CCR8 [7] = target: T1, human CCR8; experiment: cell-based or functional assay; remark: listed apart in the source
human CCR8 [8] = target: T1, human CCR8; experiment: cell-based or functional assay; remark: listed apart in the source
human CCR8 [9] = target: T1, human CCR8; experiment: flow cytometry, competition with 10 nM AF647-human CCL1 on 293F-hCCR8 cells; remark: listed apart in the source
cynomolgus CCR8 [10] = target: T2, cynomolgus CCR8; experiment: flow cytometry on 293T-cynoCCR8 cells; remark: listed apart in the source
human CCR8 [11] = target: T1, human CCR8; experiment: flow cytometry on 293F-hCCR8 cells; remark: listed apart in the source
human CCR8 [12] = target: T1, human CCR8; experiment: flow cytometry on 293F-hCCR8 cells; remark: listed apart in the source
human CCR8 [13] = target: T1, human CCR8; experiment: flow cytometry, competition with 10 nM AF647-human CCL1 on 293F-hCCR8 cells; remark: listed apart in the source
human CCR8 [14] = target: T1, human CCR8; experiment: cell-based or functional assay; remark: listed apart in the source

T1 sequence (P51685 whole entry): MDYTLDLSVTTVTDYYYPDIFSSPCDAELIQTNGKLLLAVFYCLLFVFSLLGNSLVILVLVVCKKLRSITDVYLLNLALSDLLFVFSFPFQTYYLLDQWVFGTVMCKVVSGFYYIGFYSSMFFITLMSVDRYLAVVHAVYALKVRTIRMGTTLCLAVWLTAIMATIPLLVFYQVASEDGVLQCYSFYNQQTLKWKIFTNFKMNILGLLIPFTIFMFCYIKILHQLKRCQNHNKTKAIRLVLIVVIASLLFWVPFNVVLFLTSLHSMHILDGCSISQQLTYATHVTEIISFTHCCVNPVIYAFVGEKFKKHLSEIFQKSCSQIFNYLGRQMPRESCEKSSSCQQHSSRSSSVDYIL

EC50 (cynomolgus CCR8 [10])	EC50 (human CCR8 [11])	IC50 (human CCR8 [13])	IC50 of blockade of CCL1-induced β-arrestin recruitment (Tango-H_CCR8-CHO-K1 cells) (human CCR8 [14])	Binder	also measured
0.072 µg/mL	0.0835 µg/mL	0.0544 µg/mL	0.997 µg/mL	569D11B5_mIgG2a (antibody, also called mIgG2a-subclass chimeric antibody 569D11B5) heavy: EVQLIESGGGLVQPKGSLKLSCAASGFNFNAYAMNWVRQAPGKGLEWVARIRSKSNDFATYYADSVKGRFTISRDDSENMLFLQMNNLKTEDTAMYYCVRHGRRDLLYSMDFWGQGTSVTVSSAKTTAPSVYPLAPVCGDTTGSSVTLGCLVKGYFPEPVTLTWNSGSLSSGVHTFPAVLQSDLYTLSSSVTVTSSTWPSQSITCNVAHPASSTKVDKKIEPRGPTIKPCPPCKCPAPNLLGGPSVFIFPPKIKDVLMISLSPIVTCVVVDVSEDDPDVQISWFVNNVEVHTAQTQTHREDYNSTLRVVSALPIQHQDWMSGKEFKCKVNNKDLPAPIERTISKPKGSVRAPQVYVLPPPEEEMTKKQVTLTCMVTDFMPEDIYVEWTNNGKTELNYKNTEPVLDSDGSYFMYSKLRVEKKNWVERNSYSCSVVHEGLHNHHTTKSFSRTPGK light: DIVMTQAAFSNPVTLGTSASISCRSSKSLLHSNGITYLFWYLQKPGQSPQLLIYQMSNLASGVPDRFSGSGSGTDFTLRISRVEAEDVGVYYCAQSLELPLTFGGGTKLEIKRADAAPTVSIFPPSSEQLTSGGASVVCFLNNFYPKDINVKWKIDGSERQNGVLNSWTDQDSKDSTYSMSSTLTLTKDEYERHNSYTCEATHKTSTSPIVKSFNRNEC	–
0.0662 µg/mL	0.0947 µg/mL	0.0579 µg/mL	0.993 µg/mL	589D7C7_mIgG2a (antibody, also called mIgG2a-subclass chimeric antibody 589D7C7) heavy: EVQLVESGGGLVQPKGSLKLSCAASGFNFNAYAMNWVRQAPGKGLEWVARIRSKSNNFATYYADSVKDRFTISRDDSESMVYLEMNNLKTEDTAMYYCVRHGRRDLLYSMDFWGQGTSVTVSSAKTTAPSVYPLAPVCGDTTGSSVTLGCLVKGYFPEPVTLTWNSGSLSSGVHTFPAVLQSDLYTLSSSVTVTSSTWPSQSITCNVAHPASSTKVDKKIEPRGPTIKPCPPCKCPAPNLLGGPSVFIFPPKIKDVLMISLSPIVTCVVVDVSEDDPDVQISWFVNNVEVHTAQTQTHREDYNSTLRVVSALPIQHQDWMSGKEFKCKVNNKDLPAPIERTISKPKGSVRAPQVYVLPPPEEEMTKKQVTLTCMVTDFMPEDIYVEWTNNGKTELNYKNTEPVLDSDGSYFMYSKLRVEKKNWVERNSYSCSVVHEGLHNHHTTKSFSRTPGK light: DIVMTQAAFSNPVTLGTSASISCRSSKSLLHSNGITYLFWYLQKPGQSPQLLIYQMSNLASGVPDRFSGSGSGTDFTLRISRVEAEDVAVYYCAQSLELPLTFGGGTKLEIKRADAAPTVSIFPPSSEQLTSGGASVVCFLNNFYPKDINVKWKIDGSERQNGVLNSWTDQDSKDSTYSMSSTLTLTKDEYERHNSYTCEATHKTSTSPIVKSFNRNEC	–

Further lines, the binder ahead of its results:

Binder	EC50 (cynomolgus CCR8 [10])	EC50 (human CCR8 [11])	IC50 (human CCR8 [13])	IC50 of blockade of CCL1-induced β-arrestin recruitment (Tango-H_CCR8-CHO-K1 cells) (human CCR8 [14])	also measured
589D7C7 (antibody, V domains shown, Murine hybridoma antibody; also called 589D7C7 hybridoma antibody) VH: EVQLVESGGGLVQPKGSLKLSCAASGFNFNAYAMNWVRQAPGKGLEWVARIRSKSNNFATYYADSVKDRFTISRDDSESMVYLEMNNLKTEDTAMYYCVRHGRRDLLYSMDFWGQGTSVTVSS VL: DIVMTQAAFSNPVTLGTSASISCRSSKSLLHSNGITYLFWYLQKPGQSPQLLIYQMSNLASGVPDRFSGSGSGTDFTLRISRVEAEDVAVYYCAQSLELPLTFGGGTKLEIK	–	–	–	–	EC50 (human CCR8 [1]): 0.361 µg/mL; EC50 (cynomolgus CCR8 [2]): 0.298 µg/mL; MFI (cynomolgus CCR8 [3]): 15200 MFI; MFI (human CCR8 [4]): 6120 MFI; IC50 (human CCR8 [5]): 0.075 µg/mL
563E10E12_hzH1L0_DE (antibody, human IgG1, kappa) heavy: not shown light: DIVMTQSPLSLPVTPGEPASISCRSSKSLLHSNGITYLFWYLQKPGQSPQLLIYQMSNLASGVPDRFSGSGSGTDFTLKISRVEAEDVGVYYCAQSLELPLTFGGGTKVEIKRTVAAPSVFIFPPSDEQLKSGTASVVCLLNNFYPREAKVQWKVDNALQSGNSQESVTEQDSKDSTYSLSSTLTLSKADYEKHKVYACEVTHQGLSSPVTKSFNRGEC	–	–	–	–	EC50 of ADCC effect (lysis%) by human PBMCs on CHOK1-hCCR8 cells (human CCR8 [6]): 0.0006 µg/mL; EC50 of activation of Jurkat-human FcγRIIIa(158V)-NFAT with HuT78 target cells (human CCR8 [7]): 0.0083 µg/mL; EC50 of activation of Jurkat-human FcγRIIIa(158V)-NFAT with 293F-hCCR8 target cells (human CCR8 [8]): 0.0009 µg/mL
563E10E12_hzH1L0_DLE (antibody, human IgG1, kappa) heavy: EVQLVESGGGLVQPGGSLKLSCAASGFNFNAYAMNWVRQASGKGLEWVGRIRSKSNNFATYYADSVTDRFTISRDDSKNTAYLQMNSLKTEDTAVYYCVRHGRRDLLYSMDFWGQGTTVTVSSASTKGPSVFPLAPSSKSTSGGTAALGCLVKDYFPEPVTVSWNSGALTSGVHTFPAVLQSSGLYSLSSVVTVPSSSLGTQTYICNVNHKPSNTKVDKKVEPKSCDKTHTCPPCPAPELLGGPDVFLFPPKPKDTLMISRTPEVTCVVVDVSHEDPEVKFNWYVDGVEVHNAKTKPREEQYNSTYRVVSVLTVLHQDWLNGKEYKCKVSNKALPLPEEKTISKAKGQPREPQVYTLPPSRDELTKNQVSLTCLVKGFYPSDIAVEWESNGQPENNYKTTPPVLDSDGSFFLYSKLTVDKSRWQQGNVFSCSVMHEALHNHYTQKSLSLSPGK light: DIVMTQSPLSLPVTPGEPASISCRSSKSLLHSNGITYLFWYLQKPGQSPQLLIYQMSNLASGVPDRFSGSGSGTDFTLKISRVEAEDVGVYYCAQSLELPLTFGGGTKVEIKRTVAAPSVFIFPPSDEQLKSGTASVVCLLNNFYPREAKVQWKVDNALQSGNSQESVTEQDSKDSTYSLSSTLTLSKADYEKHKVYACEVTHQGLSSPVTKSFNRGEC	–	–	–	–	EC50 of ADCC effect (lysis%) by human PBMCs on CHOK1-hCCR8 cells (human CCR8 [6]): 0.00039 µg/mL; EC50 of activation of Jurkat-human FcγRIIIa(158V)-NFAT with HuT78 target cells (human CCR8 [7]): 0.0057 µg/mL; EC50 of activation of Jurkat-human FcγRIIIa(158V)-NFAT with 293F-hCCR8 target cells (human CCR8 [8]): 0.0007 µg/mL
27B9-1G3_hIgG1 (antibody, V domains shown, also called hIgG1-subclass chimeric antibody 27B9-1G3) VH: EIQLQQSGPELEKPGASVKISCKASGYSFTGYNMNWVKKSNGKSLEWIGNIDPYYGGTNYNQKFKGKATLTVDKSSSTAYMQLKSLTSEDSAVYYCARETWFITTGVIKKGFYFDYWGQGTTLTVSS VL: EIVLTQSPTTMAASPGEKITLACSASSIISSNYLHWYQQKPGFSPKLLIYRTSSLASGVPARFSGSGSGTSYSLTIGTMEAEDVATYYCQQGSSIPRTFGGGTKLEIKR	0.305 µg/mL	0.273 µg/mL	0.273 µg/mL	0.26 µg/mL	IC50 (human CCR8 [9]): 0.0959 µg/mL; EC50 (human CCR8 [12]): 0.139 µg/mL
559E1B10 (antibody, V domains shown, Murine hybridoma antibody; also called 559E1B10 hybridoma antibody) VH: KVQLQQSGPVLVKPGASVKMSCKASGYTFTDYYVNWMKQNYGKSPEWIGVINPHNGDTRYNQKFKGKATLTVDKSSSTANMELTSLTSGDSAVYYCASWLRRGYYFDSWGQGTTLTVSS VL: DIVMTQSPATLSVTPGDRVSLSCRASQSISDYLHWYQQKSHESPRLLLKYVSQSISGIPSRFSGSGSGSDFTLTINSVEPEDVGVYYCQNGHSFPLTFGAGTKLELK	–	–	–	–	EC50 (human CCR8 [1]): 0.107 µg/mL; EC50 (cynomolgus CCR8 [2]): 0.322 µg/mL; MFI (cynomolgus CCR8 [3]): 21900 MFI; MFI (human CCR8 [4]): 7350 MFI; IC50 (human CCR8 [5]): 0.0785 µg/mL
559E1B10_mIgG2a (antibody, also called mIgG2a-subclass chimeric antibody 559E1B10) heavy: KVQLQQSGPVLVKPGASVKMSCKASGYTFTDYYVNWMKQNYGKSPEWIGVINPHNGDTRYNQKFKGKATLTVDKSSSTANMELTSLTSGDSAVYYCASWLRRGYYFDSWGQGTTLTVSSAKTTAPSVYPLAPVCGDTTGSSVTLGCLVKGYFPEPVTLTWNSGSLSSGVHTFPAVLQSDLYTLSSSVTVTSSTWPSQSITCNVAHPASSTKVDKKIEPRGPTIKPCPPCKCPAPNLLGGPSVFIFPPKIKDVLMISLSPIVTCVVVDVSEDDPDVQISWFVNNVEVHTAQTQTHREDYNSTLRVVSALPIQHQDWMSGKEFKCKVNNKDLPAPIERTISKPKGSVRAPQVYVLPPPEEEMTKKQVTLTCMVTDFMPEDIYVEWTNNGKTELNYKNTEPVLDSDGSYFMYSKLRVEKKNWVERNSYSCSVVHEGLHNHHTTKSFSRTPGK light: DIVMTQSPATLSVTPGDRVSLSCRASQSISDYLHWYQQKSHESPRLLLKYVSQSISGIPSRFSGSGSGSDFTLTINSVEPEDVGVYYCQNGHSFPLTFGAGTKLELKRADAAPTVSIFPPSSEQLTSGGASVVCFLNNFYPKDINVKWKIDGSERQNGVLNSWTDQDSKDSTYSMSSTLTLTKDEYERHNSYTCEATHKTSTSPIVKSFNRNEC	0.0819 µg/mL	0.1 µg/mL	0.0649 µg/mL	1.76 µg/mL	–
563E10E12_mIgG2a (antibody, also called mIgG2a-subclass chimeric antibody 563E10E12) heavy: EVQLIESGGGLVQPKGSLKLSCAASGFNFNAYAMNWVRQAPGKGLEWVARIRSKSNNFATYYADSVTDRFTISRDDSESMLYLQMNNLKTEDTAMYYCVRHGRRDLLYSMDFWGQGTSVTVSSAKTTAPSVYPLAPVCGDTTGSSVTLGCLVKGYFPEPVTLTWNSGSLSSGVHTFPAVLQSDLYTLSSSVTVTSSTWPSQSITCNVAHPASSTKVDKKIEPRGPTIKPCPPCKCPAPNLLGGPSVFIFPPKIKDVLMISLSPIVTCVVVDVSEDDPDVQISWFVNNVEVHTAQTQTHREDYNSTLRVVSALPIQHQDWMSGKEFKCKVNNKDLPAPIERTISKPKGSVRAPQVYVLPPPEEEMTKKQVTLTCMVTDFMPEDIYVEWTNNGKTELNYKNTEPVLDSDGSYFMYSKLRVEKKNWVERNSYSCSVVHEGLHNHHTTKSFSRTPGK light: DVVMTQAAFSNPVTLGTSTSISCRSSKSLLHSNGITYLFWYLQKPGQSPQLLIYQMSNLASGVPDRFSGSGSGTDFTLRISRVEAEDVGVYYCAQSLELPLTFGGGTKLEIKRADAAPTVSIFPPSSEQLTSGGASVVCFLNNFYPKDINVKWKIDGSERQNGVLNSWTDQDSKDSTYSMSSTLTLTKDEYERHNSYTCEATHKTSTSPIVKSFNRNEC	0.0664 µg/mL	0.0833 µg/mL	0.0411 µg/mL	0.902 µg/mL	–
